# According to patent publication US20140286957A1 (Teva, published 2014):
# Where “and” joins values, the source holds several entries; their conditions need not be identical. Equal entries are not always repeated. Where two headings read alike, the source gives them in different places.
# T1: CD1d tetramer loaded with α-GalCer (ProImmune) (UniProt P15813 20-301, limits assumed)
# T1 construct: Bought reagent; also called fluorochrome-conjugated CD1d tetramer
# T1 sequence (looked up): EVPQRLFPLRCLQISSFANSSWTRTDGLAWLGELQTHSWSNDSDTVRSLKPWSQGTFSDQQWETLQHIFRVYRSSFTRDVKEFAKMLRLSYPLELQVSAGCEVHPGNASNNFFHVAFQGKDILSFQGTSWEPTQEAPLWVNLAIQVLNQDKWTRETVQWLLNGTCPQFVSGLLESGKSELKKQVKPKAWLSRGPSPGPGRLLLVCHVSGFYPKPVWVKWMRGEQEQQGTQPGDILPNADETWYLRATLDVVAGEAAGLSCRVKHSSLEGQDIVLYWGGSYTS
# T2: Human CD1d on cells (human, UniProt P15813 20-335)
# T2 sequence (looked up): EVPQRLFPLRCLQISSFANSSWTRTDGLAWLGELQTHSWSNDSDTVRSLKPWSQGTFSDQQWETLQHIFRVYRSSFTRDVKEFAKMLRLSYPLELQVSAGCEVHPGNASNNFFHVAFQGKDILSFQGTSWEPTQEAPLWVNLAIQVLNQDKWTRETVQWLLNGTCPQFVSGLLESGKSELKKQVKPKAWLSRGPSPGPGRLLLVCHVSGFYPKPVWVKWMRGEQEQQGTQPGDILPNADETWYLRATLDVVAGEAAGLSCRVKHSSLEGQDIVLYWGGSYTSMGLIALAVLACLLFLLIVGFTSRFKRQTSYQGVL
# B1: 401.11 (antibody, V domains shown)
# VH: QVQLVGSGGGLVKPGRSLRLSCAASGFTFDDYAMHWVRQAPGKGLEWVATIIWNSAIIGYADSVKGRFIVSRDNAKNSLYLQMNSLRAEDMALYYCAKDMCSSSGCPDGYFDSWGQGTLVTVSS
# VL: DIQMTQSPSSVSASVGDRVTITCRASQHISSWLAWYQQKPGKAPNLLIYAASSLQSGVSSRFSGSGSGTDFTLTISSLQPEDFATYYCQQANRFPLTFGGGTKLEIKR
# Tests used:
# [1] = target: T1, CD1d tetramer loaded with α-GalCer …; assay: flow cytometry, inhibition of CD1d tetramer (10 nM) binding to NKTCR on J.RT3-T3.5 cells
# Human CD1d on cells [2] = target: T2, Human CD1d on cells; assay: cell-based or functional assay
# [3] = target: Cynomolgus macaque CD1d on cells (cynomolgus macaque); assay: flow cytometry, biotinylated antibody and streptavidin-PE on cynomolgus PBMC, gated live cells
# Human CD1d on cells [4] = target: T2, Human CD1d on cells; assay: cell-based or functional assay; remark: listed apart in the source
# Human CD1d on cells [5] = target: T2, Human CD1d on cells; assay: cell-based or functional assay; remark: listed apart in the source
# Human CD1d on cells [6] = target: T2, Human CD1d on cells; assay: cell-based or functional assay; remark: listed apart in the source
# Human CD1d on cells [7] = target: T2, Human CD1d on cells; assay: cell-based or functional assay; remark: listed apart in the source
# Human CD1d on cells [8] = target: T2, Human CD1d on cells; assay: cell-based or functional assay; remark: listed apart in the source
# Human CD1d on cells [9] = target: T2, Human CD1d on cells; assay: cell-based or functional assay; remark: listed apart in the source
# Human CD1d on cells [10] = target: T2, Human CD1d on cells; assay: cell-based or functional assay; remark: listed apart in the source
# Human CD1d on cells [11] = target: T2, Human CD1d on cells; assay: cell-based or functional assay; remark: listed apart in the source
# Human CD1d on cells [12] = target: T2, Human CD1d on cells; assay: cell-based or functional assay; remark: listed apart in the source
# Human CD1d on cells [13] = target: T2, Human CD1d on cells; assay: cell-based or functional assay; remark: listed apart in the source
# Human CD1d on cells [14] = target: T2, Human CD1d on cells; assay: cell-based or functional assay; remark: listed apart in the source
# Human CD1d on cells [15] = target: T2, Human CD1d on cells; assay: cell-based or functional assay; remark: listed apart in the source
# Human CD1d on cells [16] = target: T2, Human CD1d on cells; assay: cell-based or functional assay; remark: listed apart in the source
molecule,measurement,setting,value
anti-CD1d antibody 51.1 (eBioscience),EC50,[1],0.775 µg/mL
same,"IFN-γ EC50 (C24:1 βGluCer, moDC)",Human CD1d on cells [2],0.112 µg/mL
same,IFN-γ EC50 (primary CD14+ cells),Human CD1d on cells [2],0.168 µg/mL
same,IL-2 release EC50 (U-937 + NKTCR cell line),Human CD1d on cells [2],0.0773 µg/mL
same,"IL-4 EC50 (C24:1 βGluCer, moDC)",Human CD1d on cells [2],0.113 µg/mL
same,"IL-5 EC50 (C24:1 βGluCer, moDC)",Human CD1d on cells [2],0.0864 µg/mL
same,"IL-13 EC50 (C24:1 βGluCer, moDC)",Human CD1d on cells [2],0.0668 µg/mL
same,IL-13 EC50 (primary CD14+ cells),Human CD1d on cells [2],0.222 µg/mL
same,NKT IFN-γ EC50 (moDC),Human CD1d on cells [2],> 1 µg/mL
same,"TNF-α EC50 (C24:1 βGluCer, moDC)",Human CD1d on cells [2],0.0297 µg/mL
irrelevant specificity negative control antibody (human IgG1),"percent CD1d-positive cells, Donor 1",[3],4.14%
same,"percent CD1d-positive cells, Donor 2",[3],4.22%
anti-CD1d antibody 42 (BD Biosciences),NKT IFN-γ EC50 (moDC),Human CD1d on cells [4],0.116 µg/mL
same,NKT IL-13 EC50 (moDC),Human CD1d on cells [4],0.0175 µg/mL
same,EC50,[1],1.44 µg/mL
same,"IFN-γ EC50 (C24:1 βGluCer, moDC)",Human CD1d on cells [2],0.139 µg/mL
same,IFN-γ EC50 (THP-1),Human CD1d on cells [2],0.429 µg/mL
same,IFN-γ EC50 (primary CD14+ cells),Human CD1d on cells [2],1.39 µg/mL
same,IL-2 release EC50 (U-937 + NKTCR cell line),Human CD1d on cells [2],0.111 µg/mL
same,"IL-4 EC50 (C24:1 βGluCer, moDC)",Human CD1d on cells [2],0.133 µg/mL
same,IL-4 EC50 (THP-1),Human CD1d on cells [2],0.0761 µg/mL
same,IL-4 EC50 (primary CD14+ cells),Human CD1d on cells [2],0.186 µg/mL
same,"IL-5 EC50 (C24:1 βGluCer, moDC)",Human CD1d on cells [2],0.0819 µg/mL
same,IL-5 EC50 (THP-1),Human CD1d on cells [2],0.0647 µg/mL
same,IL-5 EC50 (primary CD14+ cells),Human CD1d on cells [2],0.108 µg/mL
same,"IL-13 EC50 (C24:1 βGluCer, moDC)",Human CD1d on cells [2],0.0523 µg/mL
same,IL-13 EC50 (THP-1),Human CD1d on cells [2],0.154 µg/mL
same,IL-13 EC50 (primary CD14+ cells),Human CD1d on cells [2],0.844 µg/mL
same,NKT IFN-γ EC50 (moDC),Human CD1d on cells [2],> 1 µg/mL
same,NKT IL-4 EC50 (moDC),Human CD1d on cells [2],0.137 µg/mL
same,NKT IL-5 EC50 (moDC),Human CD1d on cells [2],0.287 µg/mL
same,"TNF-α EC50 (C24:1 βGluCer, moDC)",Human CD1d on cells [2],0.00569 µg/mL
B1,"IFN-γ EC50 (C24:1 βGluCer, moDC)",Human CD1d on cells [5],0.00238 µg/mL
same,"IL-4 EC50 (C24:1 βGluCer, moDC)",Human CD1d on cells [5],0.00145 µg/mL
same,"IL-5 EC50 (C24:1 βGluCer, moDC)",Human CD1d on cells [5],0.00123 µg/mL
same,"IL-13 EC50 (C24:1 βGluCer, moDC)",Human CD1d on cells [5],0.00555 µg/mL
same,"TNF-α EC50 (C24:1 βGluCer, moDC)",Human CD1d on cells [5],0.00179 µg/mL
same,NKT IL-4 EC50 (moDC),Human CD1d on cells [6],0.00763 µg/mL and 0.00655 µg/mL
same,NKT IL-13 EC50 (moDC),Human CD1d on cells [6],0.0227 µg/mL and 0.0196 µg/mL
same,IFN-γ EC50 (THP-1),Human CD1d on cells [7],0.0038 µg/mL
same,IL-4 EC50 (THP-1),Human CD1d on cells [7],0.0019 µg/mL
same,IL-5 EC50 (THP-1),Human CD1d on cells [7],0.0017 µg/mL
same,IL-13 EC50 (THP-1),Human CD1d on cells [7],0.0025 µg/mL
same,NKT IFN-γ EC50 (THP-1),Human CD1d on cells [8],0.00375 µg/mL
same,NKT IFN-γ EC50 (moDC),Human CD1d on cells [8],0.000857 µg/mL
same,NKT IL-4 EC50 (THP-1),Human CD1d on cells [8],0.00288 µg/mL
same,NKT IL-4 EC50 (moDC),Human CD1d on cells [8],0.00686 µg/mL
same,"fold potency against 51.1, IL-2 release",Human CD1d on cells [9],~15 fold
same,fold potency against antibody 42 (C24:1 βGluCer),Human CD1d on cells [9],≤ 58 fold
same,fold potency against antibody 42 (THP-1 assay),Human CD1d on cells [9],≤ 114 fold
same,fold potency against antibody 42 (moDC assay),Human CD1d on cells [9],≤ 200 fold
same,"fold potency against antibody 42, IL-2 release",Human CD1d on cells [9],~20 fold
same,fold potency against antibody 51.1 (C24:1 βGluCer),Human CD1d on cells [9],≤ 47 fold
same,NKT IFN-γ EC50 (moDC),Human CD1d on cells [10],0.0394 µg/mL
same,NKT IL-4 EC50 (moDC),Human CD1d on cells [10],0.0173 µg/mL
same,NKT IL-5 EC50 (moDC),Human CD1d on cells [10],0.0475 µg/mL
same,NKT IL-13 EC50 (moDC),Human CD1d on cells [10],0.0831 µg/mL
same,NKT TNF EC50 (moDC),Human CD1d on cells [10],0.0169 µg/mL
same,IFN-γ EC50 (primary CD14+ cells),Human CD1d on cells [11],0.0068 µg/mL
same,IL-4 EC50 (primary CD14+ cells),Human CD1d on cells [11],0.0059 µg/mL
same,IL-5 EC50 (primary CD14+ cells),Human CD1d on cells [11],0.0062 µg/mL
same,IL-13 EC50 (primary CD14+ cells),Human CD1d on cells [11],0.0121 µg/mL
same,IL-2 release EC50 (U-937 + NKTCR cell line),Human CD1d on cells [12],0.0053 µg/mL
same,NKT IFN-γ EC50 (THP-1),Human CD1d on cells [13],0.0552 µg/mL
same,NKT IL-4 EC50 (THP-1),Human CD1d on cells [13],0.00298 µg/mL
same,NKT IL-5 EC50 (THP-1),Human CD1d on cells [13],0.00696 µg/mL
same,NKT IL-13 EC50 (THP-1),Human CD1d on cells [13],0.0272 µg/mL
same,NKT TNF EC50 (THP-1),Human CD1d on cells [13],0.00918 µg/mL
same,NKT IFN-γ EC50 (THP-1),Human CD1d on cells [14],0.00375 µg/mL
same,NKT IFN-γ EC50 (moDC),Human CD1d on cells [14],0.000857 µg/mL
same,NKT IFN-γ EC50 (THP-1),Human CD1d on cells [15],0.00233 µg/mL
same,NKT IFN-γ EC50 (moDC),Human CD1d on cells [15],0.0235 µg/mL
same,NKT IL-4 EC50 (THP-1),Human CD1d on cells [15],0.00136 µg/mL
same,NKT IL-4 EC50 (moDC),Human CD1d on cells [15],0.0128 µg/mL
same,NKT IL-13 EC50 (THP-1),Human CD1d on cells [15],0.00329 µg/mL
same,EC50,[1],0.284 µg/mL
same,NKT IFN-γ EC50 (moDC),Human CD1d on cells [16],0.0124 µg/mL
same,NKT IL-4 EC50 (moDC),Human CD1d on cells [16],0.00198 µg/mL
same,NKT IL-5 EC50 (moDC),Human CD1d on cells [16],0.00225 µg/mL
same,NKT IL-13 EC50 (moDC),Human CD1d on cells [16],0.00236 µg/mL
